# Results: US20160271157A1, “BETA-CATENIN” (UCL BUSINESS PLC, priority 2013, published 2016)
# B1: Wnt5A: Recombinant Wnt peptide purchased from R&D systems (protein, UniProt P41221 62-380, looked up)
# Protein Wnt-5a: IIGAQPLCSQLAGLSQGQKKLCHLYQDHMQYIGEGAKTGIKECQYQFRHRRWNCSTVDNTSVFGRVMQIGSRETAFTYAVSAAGVVNAMSRACREGELSTCGCSRAARPKDLPRDWLWGGCGDNIDYGYRFAKEFVDARERERIHAKGSYESARILMNLHNNEAGRRTVYNLADVACKCHGVSGSCSLKTCWLQLADFRKVGDALKEKYDSAAAMRLNSRGKLVQVNSRFNSPTTQDLVYIDPSPDYCVRNESTGSLGTQGRLCNKTSEGMDGCELMCCGRGYDQFKTVQTERCHCKFHWCCYVKCKKCTEIVDQFVCK
# B2: Wnt9B: Recombinant Wnt peptide purchased from R&D systems (protein, UniProt O14905 23-357, looked up)
# Protein Wnt-9b: SYFGLTGREVLTPFPGLGTAAAPAQGGAHLKQCDLLKLSRRQKQLCRREPGLAETLRDAAHLGLLECQFQFRHERWNCSLEGRMGLLKRGFKETAFLYAVSSAALTHTLARACSAGRMERCTCDDSPGLESRQAWQWGVCGDNLKYSTKFLSNFLGSKRGNKDLRARADAHNTHVGIKAVKSGLRTTCKCHGVSGSCAVRTCWKQLSPFRETGQVLKLRYDSAVKVSSATNEALGRLELWAPARQGSLTKGLAPRSGDLVYMEDSPSFCRPSKYSPGTAGRVCSREASCSSLCCGRGYDTQSRLVAFSCHCQVQWCCYVECQQCVQEELVYTCKH
# Experiments:
# [1] = tested on: PC3 prostate cancer cell line; test: Live [Ca2+]i imaging (Fluo4/FuraRed ratio) after addition of Wnt ligand; format: cell-based; details: PC3 cells; for intracellular calcium mobilization ([Ca2+]i release) in response to Wnt ligand: 100 ng/ml Wnt ligand peptide, ratio of Fluo4/Fura Red; for dependence of time constants (dwell time) on Wnt ligand concentration / co-operativity: three concentrations of each Wnt ligand, first-order fit; for rise and fall time of [Ca2+]i release: Wnt peptide 100 ng/ml
# Method: The imaging protocol was developed in the inventor's laboratory and has been described in detail, elsewhere (Wang at al., (2010) PLoS ONE 5, e10456). Briefly, 100000-200000 PC3, MCF7, 253J or Cos 7 cells were plated on 35 mm FluoroDish (WPI) and grown for 48 h; calcium indicators Fluo-4 (Invitrogen) and FuraRed (Invitrogen) at 1 ng/ml were added to FluoroDish containing only 1 ml of culture medium and incubated for 15-20 min at 37° C. The culture medium was removed and washed (×2) and replaced with 1 ml PBS. Live cell calcium Imaging was performed on an Olympus FluoView FV 1000 confocal microscope (Olympus KeyMed) equipped with a 20× dry objective (numerical aperture=0.75). Calcium indicators were excited with an argon laser line (488 nm) and emissions recorded in the green channel (500-560 nm) for Fluo-4 and red channel (600-700 nm) for FuraRed after addition of vehicle control (PBS) or Wnt X (30-600 ng/ml). Images were acquired every 1.1 or 2.2 seconds for up to 600-800s; image and data acquisition was performed using FluoView 1000 software (Olympus, UK). Fluorescent intensity was measured and data exported as a tab delimited file for further analysis using a spreadsheet. All imaging experiments were performed in duplicate; intracellular calcium at 100 ng/ml was measured in at least 3-12 different passages (passage numbers 25 to 37) of cell line for each Wnt ligand. Wnt 11 was tested in at least 5 different passages at 3 different concentrations. To test if the Wnt activated calcium release was from [Ca^2+]i stores, in some cases PC3 cells, loaded with calcium dyes, were incubated with 1-5 μM of thapsigargin (Sigma, UK), resuspended in dimethyl sulfoxide (DMSO), for 20 min at 37° C., prior to addition of Wnt ligand and live calcium imaging (as described above).
# The experiments were performed using 35 mm, glass bottom, FluoroDish containing 1 ml PBS, at 37° C., to which ligands were added at desired concentration. In a static, non-superfusing assay system there is a lag time before the start of a response, in this case an increase in the intensity of the Fluo4 signal due to the release of free calcium. To measure the diffusion constant under these conditions we used Pontamine Sky Blue (Sigma Aldridge), which fluoresces in the red spectrum with 488 nm excitation, using standard practice for adding ligands; the diffusion constant was measured to be 23.3±2.1 μm·s^−1 (means±S.E.M, n=8). The calcium wave, in response to Wnt ligands, travelled across the FluoroDish.
# After image acquisition, regions of interest (ROI) were drawn over individual PC3 cells (up to 25) in a single frame and calcium intensity measurements were made using FluoView 1000 software (Olympus, UK). The measurements were exported as a tab delimited file into a spreadsheet for further analysis and Fluo4/Fura Red ratios were calculated. The waveform, a product of the ratio of Fluo4 and FuraRed over the period of measurement was used to measure the kinetics of the activation of [Ca^2+]i release in PC3 cells, in response to different Wnt ligands. The time constants (rise, dwell and fall times) were calculated by first fitting the Fluo4/FuraRed ratio to a single Gaussian function (Origin Lab Corp., MA); a lower (10%) and upper (90%) amplitude thresholding method was then used to calculate the time constants (s). Statistical significance was calculated using Mann Whitney U test.
# [2] = tested on: β-catenin translocation to the nucleus; test: β-catenin immunocytochemistry and nuclear co-localization analysis, PC3; format: cell-based; details: for Pearson coefficient of nuclear co-localization of β-catenin / expression of β-catenin (immunofluorescence), visible in the nucleus: PC3 cells; for Pearson coefficient of nuclear co-localization of β-catenin: Wnt 100 ng/ml vs control, p<0.001 Mann Whitney test; for expression of β-catenin (immunofluorescence), visible in the nucleus: Wnt ligand 100 ng/ml vs vehicle
# Method: Immunostaining was performed in two different laboratories, independently with the experimenter blind to the identity of the treatment. Either cells used in FluoroDish, post [Ca^2+]i experiments using dyes (see above) or grown in 8 well chamber glass slides (Lab Tek II, Nunc) were used. For Wnt ligand treatment, the culture medium replaced with PBS (without calcium) at 37° C. The experiments were replicated for Wnt ligand or vehicle control as described for [Ca^2+]i measurements. Briefly, Wnt ligands were added and chamber slides incubated at 37° C. for up to 20 min. Chamber wells were washed 3× with 0.5 ml PBS and cells were fixed with 0.5 ml 4% formalin for 30 min at 4° C. Cells were washed 3× with ice cold PBS and stored in 0.5 ml PBS at 4° C. for immunostaining. In some experiments PC3 cells were treated with thaspsigargin as described above.
# For immunostaining cells were washed twice for 5 minutes in TBST (20 mM Tris pH 7.4, 0.9% NaCl, 0.1% Tween 20, Sigma). Cells were then incubated in 20% normal goat serum (NGS)/TBST for 30 min at room temperature, the chambers were drained and cells were incubated with mouse anti-β-catenin (ab22656, Abcam, UK) at 1:500 dilution in NGS/TBST overnight at 4° C. Following two further 5 min washes in TBST sections were incubated in goat anti-mouse peroxidase fab (Abcam, UK) at 1:500 dilution for 30 min at room temperature. Following a further two 5 min washes in TBST cells were incubated with tyramide Cy3 (Perkin Elmer) for 10 min at room temperature. Sections were washed twice for 5 min in TBST before nuclear counterstaining with DAPI. After a final two 5 min washes, the chambers were removed and cover slip placed on slides using Permafluor (Thermo Shandon).
# Fluorescence immunocytochemical staining for β-catenin expression in cell lines was imaged using Olympus Fluoview 1000 Confocal Microscope (Olympus KeyMed) mounted on an Olympus IX81 inverted microscope using a 20×0.7 NA or 40×1.0 NA dry objective with a zoom of ×3.4′,6-diamidino-2-phenylindole (DAPI, nuclear counterstain) was excited at 405 nm with an emission of 415-500 nm; Cy3 (β-catenin label) signal was excited at 561 nm with an emission spectrum between 570-670 nm. […] Z-stacks of at least 3 fields per sample were imaged and saved in Olympus FV (OIF or OIB) file format.
# Nuclear co-localization of β-catenin was calculated by importing FV files for untreated, control or treated cells, into colocalization plugin of Fiji software (http://fiji.sc/Fiji) for Cy3 (β-catenin) and DAPI (nuclear) signals. Pearson co-relation of colocalization were tabulated for 25-90 cells (from 2-5 different passages of cells) using ROI analysis. Statistical significance between untreated and treated cells was calculated using Mann Whitney U test.
Molecule,time for thapsigargin-evoked calcium transient to decline to baseline ([1]; thapsigargin 5 μM final concentration) [s],translocation of β-catenin into the nucleus after inhibition of Wnt induced [Ca2+]i release ([2]; PC3 cells incubated with thapsigargin),intracellular calcium mobilization ([Ca2+]i release) in response to Wnt ligand [1],dependence of time constants (dwell time) on Wnt ligand concentration / co-operativity [1],Pearson coefficient of nuclear co-localization of β-catenin [2],"expression of β-catenin (immunofluorescence), visible in the nucleus [2]",rise and fall time of [Ca2+]i release [1],"K1/2 (half-maximal concentration), Michaelis-Menten kinetics of dwell time of [Ca2+]i release ([1]; estimated from fit of dwell time vs Wnt concentration) [ng/mL]"
"C/C=C(/C)C(=O)O[C@H]1C(C)=C2[C@H]([C@@H]1OC(=O)CCCCCCC)[C@@](C)(OC(C)=O)C[C@H](OC(=O)CCC)[C@@]1(O)[C@H]2OC(=O)[C@@]1(C)O [thapsigargin, reference compound]",≤ 120,reduced the translocation of β-catenin into the nucleus,–,–,–,–,–,–
Wnt10B: Recombinant Wnt peptide purchased from R&D systems,–,–,induce intracellular calcium mobilization,negative co-operativity,significant increase,visibly increased,–,–
B1,–,–,induce intracellular calcium mobilization,classical Michaelis-Menten kinetics,significant increase,visibly increased,shortest,67
B2,–,–,induce intracellular calcium mobilization,negative co-operativity,significant increase,visibly increased,slowest,–
